Assay [1] deals with T1, LRRC15 on the surface of LRRC15+ cells (SAOS-2, U87MG) (UniProt Q8TF66 22-581, limits assumed).
T1 sequence (looked up): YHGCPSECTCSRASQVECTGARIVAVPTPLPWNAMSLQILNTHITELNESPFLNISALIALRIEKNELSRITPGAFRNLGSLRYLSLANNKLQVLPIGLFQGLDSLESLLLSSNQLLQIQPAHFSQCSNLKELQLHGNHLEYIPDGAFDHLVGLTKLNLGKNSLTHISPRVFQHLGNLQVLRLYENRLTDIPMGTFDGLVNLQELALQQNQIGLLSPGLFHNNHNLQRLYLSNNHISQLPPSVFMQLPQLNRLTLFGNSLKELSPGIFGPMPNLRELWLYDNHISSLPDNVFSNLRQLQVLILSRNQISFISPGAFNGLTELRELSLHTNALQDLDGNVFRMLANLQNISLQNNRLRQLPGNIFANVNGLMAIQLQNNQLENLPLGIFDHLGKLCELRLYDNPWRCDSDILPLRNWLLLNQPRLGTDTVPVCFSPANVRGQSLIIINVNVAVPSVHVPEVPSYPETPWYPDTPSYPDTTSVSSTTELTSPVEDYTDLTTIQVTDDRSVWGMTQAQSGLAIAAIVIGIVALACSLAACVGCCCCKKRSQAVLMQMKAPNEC
Kind of assay: cell-based or functional assay.

In assay [2] the target is T2, Human LRRC15 Protein, His Tag (Acro Biosystems) (human, UniProt Q8TF66 22-538, limits assumed).
T2 sequence (looked up): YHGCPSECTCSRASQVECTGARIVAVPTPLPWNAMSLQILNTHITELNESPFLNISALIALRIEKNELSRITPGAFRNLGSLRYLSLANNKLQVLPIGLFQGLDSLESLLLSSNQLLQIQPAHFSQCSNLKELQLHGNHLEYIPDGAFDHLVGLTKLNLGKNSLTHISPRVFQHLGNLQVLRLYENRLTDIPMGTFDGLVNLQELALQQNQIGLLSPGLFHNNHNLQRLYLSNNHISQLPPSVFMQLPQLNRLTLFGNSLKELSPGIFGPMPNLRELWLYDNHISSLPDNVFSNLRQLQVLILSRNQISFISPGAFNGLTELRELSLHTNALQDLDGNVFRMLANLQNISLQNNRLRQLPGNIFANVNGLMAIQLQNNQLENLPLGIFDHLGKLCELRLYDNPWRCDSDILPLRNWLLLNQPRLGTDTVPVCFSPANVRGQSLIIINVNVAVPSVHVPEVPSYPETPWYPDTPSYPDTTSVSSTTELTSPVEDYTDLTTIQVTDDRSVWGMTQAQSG
Kind of assay: BLI; dissociation pH 7.4 black, pH 5.4 grey [1/2); D00006 FIG. 1E (1/2]. The text has this: (§1) For each individual plot, antigen binding proteins were captured on anti-human Fc biosensors and associated with LRRC15 at pH 7.4. Dissociation was at pH 7.4 (black) or pH 5.4 (grey). Major X-axis ticks=100 seconds, with left dashed vertical line=0 seconds. Major Y-axis ticks=0.5 nm and octet plots are shown MYT5712 and MYT6080-MYT6121.
(§2) Multiple LRRC15-binding monoclonal antibodies have been described in the literature and can be used as a template for engineering pH-dependent binding. We selected discovery RabMAb clone 15G7 (rabbit VH SEQ ID NO: 378, rabbit VL SEQ ID NO: 451; humanized VH SEQ ID NO: 382, humanized VL SEQ ID NO: 455) as a LRRC15-binding monoclonal antibody for pH-engineering via histidine scanning. […] To generate pH-dependent sequence variants, individual amino acid residues within the heavy chain CDRs were systematically substituted with a histidine (or alanine if H was already present in a given position; e.g., MYT6099), one at a time (rabbit, MYT6080-6121). Desirable mutations were transferred to a humanized framework (humanized, MYT 8387-8411). After allowing for four days of protein expression, cell culture supernatants were collected, quantified by SDS-PAGE analysis, and the pH dependence of the variant was evaluated using biolayer interferometry (BLI) on an Octet RED 96e instrument. Briefly, cell culture supernatants were diluted based on qualitative expression level of the variant determined by visual examination of SDS-PAGE gels, 5 μL of cell culture supernatant was diluted into 195 μL of 1×PBST, pH 7.4 for high expressors, 25 μL of cell culture supernatant was diluted into 175 μL of 1×PBST, pH 7.4 for medium expressors and 100 μL of cell culture supernatant was diluted into 100 μL of 1×PBST, pH 7.4 for low expressors for loading onto the sensor tips.

For assay [3], the target named is T3, Human LRRC15 Protein, His Tag (Acro Biosystems) (human, UniProt Q8TF66 22-538, limits assumed).
T3 construct: Bought protein with His tag
T3 sequence (looked up): T2 sequence (looked up)
Briefly: BLI; dissociation pH 7.4 black, pH 5.4 grey [D00008 FIG. 1F].
Excerpt: as §1, §2
In general terms: BLI is a label-free optical method that tracks binding on a fibre tip over time.

Substitutions are numbered along the chain they refer to. Names and notes keep the numbering of the source.

B1: MYT3315 (antibody, V domains shown)
VH: EVQLVESGGGLVQPGGSLRLSCAVSGFSLTSYGVHWVRQATGKGLEWLGVIWAGGSTNYNSALMSRLTISKENAKSSVYLQMNSLRAGDTAMYYCATHMITEDYYGMDYWGQGTTVTVSS
VL: DIVMTQSPDSLAVSLGERATINCKSSQSLLNSRTRKNYLAWYQQKPGQSPKLLIYWASTRHSGVPDRFSGSGSGTDFTLTISSLQAEDVAVYYCKQSYNLPTFGGGTKVEIK
Take B1: in assay [1], the “Internalization in U87MG cells (10 nM, 24 hours), FOB = fold over background (IgG control)” value is 2.57 fold over background (IgG control) and the “Internalization in U87MG cells (10 nM, 24 hours), FOS = fold over samrotamab” value (shortened to “Internalization … FOS = fold over samrotamab”) was found to be 1.83 fold over samrotamab.

B2: MYT9776 (antibody, V domains shown)
VH: EVQLVESGGGLVQPGGSLRLSCTASGFSFSGHYWICWVRQAPGKGLEWVGCIHGGSHDITYYASWAKGRFTISRDTSKNTVYLQKTSLRAEDTAVYYCASDTSYTAYGNFYFNLWGQGTLVTVSS
VL: EIVMTQSPSPLSASVGDRVIITCQSSQSVLNNNWLAWYQQKPGKAPKLLIYDASSLASGVPSRFSGSGSGAEFTLTISSLQPDDFATYYCQGEFSCGSADCNAFGQGTKLEIK
Take B2: in assay [1], the “Internalization in U87MG cells (10 nM, 24 hours), FOB = fold over background (IgG control)” value is 2.69 fold over background (IgG control) and the “Internalization … FOS = fold over samrotamab” value is 1.97 fold over samrotamab.

B3: MYT5712 (antibody, V domains shown)
VH: QEQLEESGGDLVKPGASLTLTCTASGLDFRRTNYICWVRQAPGKGLEWIGCIYIADVVHYYASWAKGRFTFSKTSSTTVTLQMTSLTAADTATYFCARGADGGFVYGMDLWGPGTLVTVSS
VL: DVVMTQTPASVSEPVGGTVTIKCQASQSIGNYLSWYQQKPGQRPKRLIYSASTLPSGVPSRFKGAGSGTEFTLTISDLESADAATYYCQNNYWLAGYGHPFGGGTEVVVK
notes: chimeric antibody (rabbit variable domains, human constant regions); also called 15G7; chimeric 15G7 RabMAb
For B3, the binding result in assay [2] is recorded as “binds”.

B4: MYT6095 (antibody, V domains shown)
VH: B3 VH with A55H
VL: B3 VL
notes: chimeric rabbit 15G7 variant (rabbit variable domains, human constant regions); also called 15G7 VH A55H
Turning to B4, in assay [2], the binding result is on record as “binds”.

B5: MYT6151 (antibody, V domains shown)
VH: B3 VH
VL: B3 VL with P100H
notes: rabbit 15G7 VL P100H; chimeric, human constant regions
B5: the binding result in assay [3] is reported as “binds”.

B6: MYT6094 (antibody, V domains shown)
VH: B3 VH with I54H
VL: B3 VL
notes: chimeric rabbit 15G7 variant (rabbit variable domains, human constant regions); also called 15G7 VH I54H
With B6, the binding result in assay [2] was “binds”.

B7: MYT6092 (antibody, V domains shown)
VH: B3 VH with I52H
VL: B3 VL
notes: chimeric rabbit 15G7 variant (rabbit variable domains, human constant regions); also called 15G7 VH I52H
Regarding B7, the binding result in assay [2] is recorded as “binds”.

B8: MYT6085 (antibody, V domains shown)
VH: B3 VH with R31H
VL: B3 VL
notes: chimeric rabbit 15G7 variant (rabbit variable domains, human constant regions); also called 15G7 VH R31H
As for B8, in assay [2], the binding result is reported as “binds”.

B9: MYT6146 (antibody, V domains shown)
VH: B3 VH
VL: B3 VL with A95H
notes: rabbit 15G7 VL A95H; chimeric, human constant regions
Take B9: in assay [3], the binding result was “binds”.

B10: MYT6150 (antibody, V domains shown)
VH: B3 VH
VL: B3 VL with H99A
notes: rabbit 15G7 VL H99A; chimeric, human constant regions
B10: the binding result in assay [3] is given as “binds”.

B11: MYT6084 (antibody, V domains shown)
VH: B3 VH with R30H
VL: B3 VL
notes: chimeric rabbit 15G7 variant (rabbit variable domains, human constant regions); also called 15G7 VH R30H
On to B11, for which the binding result in assay [2] was “binds”.

B12: MYT6145 (antibody, V domains shown)
VH: B3 VH
VL: B3 VL with L94H
notes: rabbit 15G7 VL L94H; chimeric, human constant regions
Regarding B12, the binding result in assay [3] was “no binding (tested: 50 nM LRRC15)”.

B13: MYT6086 (antibody, V domains shown)
VH: B3 VH with T32H
VL: B3 VL
notes: chimeric rabbit 15G7 variant (rabbit variable domains, human constant regions); also called 15G7 VH T32H
For the molecule B13, in assay [2], the binding result is “binds”.

B14: MYT6089 (antibody, V domains shown)
VH: B3 VH with I35H
VL: B3 VL
notes: chimeric rabbit 15G7 variant (rabbit variable domains, human constant regions); also called 15G7 VH I35H
Consider B14, for which the binding result in assay [2] was “binds”.

B15: MYT6143 (antibody, V domains shown)
VH: B3 VH
VL: B3 VL with Y92H
notes: rabbit 15G7 VL Y92H; chimeric, human constant regions
On to B15, for which the binding result in assay [3] was “binds”.

B16: MYT6148 (antibody, V domains shown)
VH: B3 VH
VL: B3 VL with Y97H
notes: rabbit 15G7 VL Y97H; chimeric, human constant regions
Regarding B16, in assay [3], the binding result was “binds”.

B17: MYT6149 (antibody, V domains shown)
VH: B3 VH
VL: B3 VL with G98H
notes: rabbit 15G7 VL G98H; chimeric, human constant regions
B17: the binding result in assay [3] was “binds”.

B18: MYT6093 (antibody, V domains shown)
VH: B3 VH with Y53H
VL: B3 VL
notes: chimeric rabbit 15G7 variant (rabbit variable domains, human constant regions); also called 15G7 VH Y53H
As to B18, the binding result in assay [2] is given as “binds”.

B19: MYT6147 (antibody, V domains shown)
VH: B3 VH
VL: B3 VL with G96H
notes: rabbit 15G7 VL G96H; chimeric, human constant regions
Consider B19, for which the binding result in assay [3] is “binds”.

B20: MYT6144 (antibody, V domains shown)
VH: B3 VH
VL: B3 VL with W93H
notes: rabbit 15G7 VL W93H; chimeric, human constant regions
As for B20, the binding result in assay [3] was “binds”.

B21: MYT6088 (antibody, V domains shown)
VH: B3 VH with Y34H
VL: B3 VL
notes: chimeric rabbit 15G7 variant (rabbit variable domains, human constant regions); also called 15G7 VH Y34H
Consider B21, for which the binding result in assay [2] is “binds”.

B22: MYT6087 (antibody, V domains shown)
VH: B3 VH with N33H
VL: B3 VL
notes: chimeric rabbit 15G7 variant (rabbit variable domains, human constant regions); also called 15G7 VH N33H
For B22, in assay [2], the binding result is on record as “binds”.

B23: MYT8415 (antibody, V domains shown)
VH: EVQLVESGGGLVQPGGSLRLSCTASGLDFRRTNYICWVRQAPGKGLEWVGCIYIADVVHYYASWAKGRFTFSRDTSKNTVYLQMNSLRAEDTAVYYCARGADGGFVYGMDLWGQGTLVTVSS
VL: EIVMTQSPSTLSASVGDRVIITCQASQSIGNYLSWYQQKPGKAPKRLIYSASTLPSGVPSRFSGSGSGAEFTLTISSLQPDDFATYYCQNNHWLAGYGHPFGQGTKLTVL
In the case of B23, in assay [1], the “Internalization in U87MG cells (10 nM, 24 hours), FOB = fold over background (IgG control)” value was 2.53 fold over background (IgG control) and the “Internalization … FOS = fold over samrotamab” value was determined as 1.79 fold over samrotamab.

These data come from patent US20250352661A1 (MYTHIC THERAPEUTICS, published 2025).
